Reference: FireProtDB (doi:10.1016/j.ijbiomac.2008.12.016)
“And” between values parts separate entries of the source, which are not always exact repeats. Equal values may be shown once.

Details: Oryctolagus cuniculus, pH 8, CD, Tris_HCl 10 mM; for denaturant midpoint (higher = more stable) / unfolding free energy: 25 °C, GdnHCl, reversible: Yes; for unfolding free energy: transition: 3; for Tm / change of melting temperature, mutant - wild type (higher = more stable): Thermal, reversible: No

Chain of Creatine kinase M-type D122A, P00563 (P00563 whole entry D122A): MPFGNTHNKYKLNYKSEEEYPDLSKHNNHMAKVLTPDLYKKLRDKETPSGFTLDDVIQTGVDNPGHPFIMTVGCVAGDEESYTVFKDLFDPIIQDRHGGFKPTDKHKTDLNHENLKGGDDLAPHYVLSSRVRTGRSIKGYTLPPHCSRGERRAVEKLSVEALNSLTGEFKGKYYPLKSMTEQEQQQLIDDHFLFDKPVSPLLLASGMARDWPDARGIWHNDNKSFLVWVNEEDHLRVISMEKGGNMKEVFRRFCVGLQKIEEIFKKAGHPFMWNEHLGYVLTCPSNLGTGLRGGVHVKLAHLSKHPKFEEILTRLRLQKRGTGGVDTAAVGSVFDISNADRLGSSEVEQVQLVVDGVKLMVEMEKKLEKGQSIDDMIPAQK
Chain of Creatine kinase M-type D122N, P00563 (P00563 whole entry D122N): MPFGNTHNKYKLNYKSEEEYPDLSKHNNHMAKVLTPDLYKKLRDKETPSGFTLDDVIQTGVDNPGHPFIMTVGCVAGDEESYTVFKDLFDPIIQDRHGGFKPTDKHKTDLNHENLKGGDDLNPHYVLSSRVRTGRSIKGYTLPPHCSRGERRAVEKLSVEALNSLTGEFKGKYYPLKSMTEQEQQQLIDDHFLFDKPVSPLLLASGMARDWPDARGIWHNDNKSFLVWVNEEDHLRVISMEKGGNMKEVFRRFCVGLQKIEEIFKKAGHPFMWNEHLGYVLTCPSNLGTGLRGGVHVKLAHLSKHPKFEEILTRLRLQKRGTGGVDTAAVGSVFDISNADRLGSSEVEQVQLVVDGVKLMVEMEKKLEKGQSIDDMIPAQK
Chain of Creatine kinase M-type wild type, P00563 (P00563 whole entry): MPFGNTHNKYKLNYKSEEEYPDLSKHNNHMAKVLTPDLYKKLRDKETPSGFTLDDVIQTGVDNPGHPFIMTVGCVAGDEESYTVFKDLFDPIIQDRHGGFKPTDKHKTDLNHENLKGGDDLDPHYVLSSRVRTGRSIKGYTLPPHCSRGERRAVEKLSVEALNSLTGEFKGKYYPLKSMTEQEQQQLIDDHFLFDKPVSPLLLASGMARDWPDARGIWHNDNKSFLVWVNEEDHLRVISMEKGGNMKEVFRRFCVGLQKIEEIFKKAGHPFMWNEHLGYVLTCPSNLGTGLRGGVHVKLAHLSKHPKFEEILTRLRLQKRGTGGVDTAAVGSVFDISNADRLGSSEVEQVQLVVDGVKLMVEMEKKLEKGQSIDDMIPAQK

## Creatine kinase M-type D122A, P00563
Structure 2CRK
  denaturant midpoint (higher = more stable): 0.24 M
  unfolding free energy: 3.59 kcal/mol
  Tm: 59.1 °C
  change of melting temperature, mutant - wild type (higher = more stable): 0 °C

## Creatine kinase M-type D122N, P00563
Structure 2CRK
  denaturant midpoint (higher = more stable): 0.29 M
  unfolding free energy: 3.59 kcal/mol and 2.87 kcal/mol
  Tm: 61.2 °C
  change of melting temperature, mutant - wild type (higher = more stable): 2.1 °C

## Creatine kinase M-type wild type, P00563
  unfolding free energy: 3.59 kcal/mol and 4.06 kcal/mol
  Tm: 59.1 °C
